This is an account of results in patent publication US20240294594A1 (CYTUNE PHARMA, published 2024).

Where a chain is given by its changes, count along the chain named. Names and notes keep the numbering of the source.

In assay [1] the target is PD-1 (on PD-1 Effector Cells of the Promega PD-1/PD-L1 Blockade Bioassay) (UniProt Q15116 25-288, limits assumed). Briefly: cell-based or functional assay.
The target of assay [2] is T1, IL-2/IL-15Rβγ (on cells) (UniProt P14784 27-551; P31785 23-369, limits assumed).
T1 sequence (looked up) 1: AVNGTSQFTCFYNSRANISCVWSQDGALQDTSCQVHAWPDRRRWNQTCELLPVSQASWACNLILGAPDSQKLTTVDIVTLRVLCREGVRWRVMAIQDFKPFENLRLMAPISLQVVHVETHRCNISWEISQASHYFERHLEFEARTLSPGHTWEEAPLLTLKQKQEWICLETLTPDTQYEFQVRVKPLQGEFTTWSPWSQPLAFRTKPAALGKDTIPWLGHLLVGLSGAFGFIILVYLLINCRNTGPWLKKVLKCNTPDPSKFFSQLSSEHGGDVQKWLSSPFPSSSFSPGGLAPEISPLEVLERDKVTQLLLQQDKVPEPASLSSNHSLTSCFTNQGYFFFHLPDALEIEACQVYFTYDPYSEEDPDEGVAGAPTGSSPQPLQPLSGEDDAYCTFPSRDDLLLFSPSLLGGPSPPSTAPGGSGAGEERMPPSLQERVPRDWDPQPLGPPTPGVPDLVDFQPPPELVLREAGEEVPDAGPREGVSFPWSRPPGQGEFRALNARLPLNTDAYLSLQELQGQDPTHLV
T1 sequence (looked up) 2: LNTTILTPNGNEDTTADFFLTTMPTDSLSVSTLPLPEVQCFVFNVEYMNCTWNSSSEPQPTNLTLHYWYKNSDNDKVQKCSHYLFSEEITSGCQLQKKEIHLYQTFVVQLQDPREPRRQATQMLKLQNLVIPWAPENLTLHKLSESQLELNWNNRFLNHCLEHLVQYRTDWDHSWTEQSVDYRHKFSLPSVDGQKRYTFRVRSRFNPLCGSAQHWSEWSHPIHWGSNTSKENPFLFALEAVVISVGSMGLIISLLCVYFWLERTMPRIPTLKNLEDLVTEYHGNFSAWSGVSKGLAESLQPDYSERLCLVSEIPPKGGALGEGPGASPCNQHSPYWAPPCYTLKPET
Briefly: cell-based or functional assay.

Assay [3] deals with T1, IL-2/IL-15Rβγ (on cells). Briefly: cell-based or functional assay. This is another data set of the same source.
Assay [4] concerns the target T2, FcγRIIIa V158 (human, UniProt P08637 17-208, limits assumed).
T2 construct: also called hFcγRIIIaV158; CD16a V158
Put plainly: SPR (Biacore 8K), ratio of 1/Kd values. As for the experimental part: (§1) SPR experiments were performed on a Biacore 8K (Cytiva, Chicago, IL, USA), using CM5 sensor chips (Cytiva) with an immobilization using THE His tag antibodies (Genscript). FcγRIIIa V158, FcγRIIIa F158 or FcγRIIb protein were used for capture with a contact time of 30 sec at a flow rate of […] in a 1×HBS-EP+ running buffer. Association/dissociation rates were measured for each tested immunocytokine at a flow rate of 30 μl/min with concentration serial dilution in a suitable range with an association time/dissociation time of 300 s/300 s except for constructs with DLE and DE with and without afucosylation, where association/dissociation time of 120 s/1200 s was applied.
A general note: In SPR one partner is held on a chip, and binding of the other changes the refractive index at the surface.

Assay [5] concerns the target T3, FcγRIIIa F158 (human, UniProt P08637 17-208, limits assumed).
T3 construct: also called hFcγRIIIaF158; CD16a F158
Briefly: SPR (Biacore 8K), ratio of 1/Kd values. The method, then: as §1

The target in assay [6] is T2, FcγRIIIa V158. Briefly: SPR (Biacore 8K), receptor captured via anti-His antibody. The method, then: as §1
Assay [7] has as its target T3, FcγRIIIa F158. The assay is described as above. The method, then: as §1
The next assay has as its target T4, FcγRIIb (UniProt P31994 46-217, limits assumed).
T4 construct: also called FcgRIIb
T4 sequence (looked up): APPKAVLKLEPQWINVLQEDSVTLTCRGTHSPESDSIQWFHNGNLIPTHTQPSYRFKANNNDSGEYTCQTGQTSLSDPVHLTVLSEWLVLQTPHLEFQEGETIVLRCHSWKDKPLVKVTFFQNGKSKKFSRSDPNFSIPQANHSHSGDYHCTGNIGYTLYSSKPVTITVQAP
The description is as above. The method, then: as §1

T2 sequence (P08637 17-208 F176V limits assumed): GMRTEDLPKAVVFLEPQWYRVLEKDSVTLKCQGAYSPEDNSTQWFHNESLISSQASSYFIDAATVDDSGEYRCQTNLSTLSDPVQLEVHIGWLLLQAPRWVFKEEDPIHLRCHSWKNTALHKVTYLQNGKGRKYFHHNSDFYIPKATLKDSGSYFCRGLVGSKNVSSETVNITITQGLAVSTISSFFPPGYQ
T3 sequence (P08637 17-208 limits assumed): as the sequence (P08637 17-208 F176V limits assumed) above, with V160F counted along it
Sequence of PD-1 (on PD-1 Effector Cells of the Promega PD-1/PD-L1 Blockade Bioassay) (Q15116 25-288 limits assumed): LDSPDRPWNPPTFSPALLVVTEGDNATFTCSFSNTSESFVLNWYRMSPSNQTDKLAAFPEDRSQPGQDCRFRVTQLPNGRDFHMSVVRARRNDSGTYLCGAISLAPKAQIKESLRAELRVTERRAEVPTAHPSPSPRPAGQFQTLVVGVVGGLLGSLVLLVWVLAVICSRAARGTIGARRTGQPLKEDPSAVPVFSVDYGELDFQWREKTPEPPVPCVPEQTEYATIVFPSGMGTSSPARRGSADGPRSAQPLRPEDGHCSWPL

B1: PEM LE/YTE-RLI NA x1 (other)
heavy 1: QVQLVQSGVEVKKPGASVKVSCKASGYTFTNYYMYWVRQAPGQGLEWMGGINPSNGGTNFNEKFKNRVTLTTDSSTTTAYMELKSLQFDDTAVYYCARRDYRFDMGFDYWGQGTTVTVSSASTKGPSVFPLAPCSRSTSESTAALGCLVKDYFPEPVTVSWNSGALTSGVHTFPAVLQSSGLYSLSSVVTVPSSSLGTKTYTCNVDHKPSNTKVDKRVESKYGPPCPPCPAPEFEGGPSVFLFPPKPKDTLYITREPEVTCVVVDVSQEDPEVQFNWYVDGVEVHNAKTKPREEQFNSTYRVVSVLTVLHQDWLNGKEYKCKVSNKGLPSSIEKTISKAKGQPREPQVYTLPPSQEEMTKNQVSLWCLVKGFYPSDIAVEWESNGQPENNYKTTPPVLDSDGSFFLYSRLTVDKSRWQEGNVFSCSVMHEALHNHYTQKSLSLSLGITCPPPMSVEHADIWVKSYSLYSRERYICNSGFKRKAGTSSLTECVLNKATNVAHWTTPSLKCIRDPALVHQRPAPPSGGSGGGGSGGGSGGGGSGGNWVNVISDLKKIEDLIQSMHIDATLYTESDVHPSCKVTAMKCFLLELQVISLESGDASIHDTVEALIILANNSLSSNAQVTESGCKECEELEEKNIKEFLQSFVHIVQMFINTS
heavy 2: QVQLVQSGVEVKKPGASVKVSCKASGYTFTNYYMYWVRQAPGQGLEWMGGINPSNGGTNFNEKFKNRVTLTTDSSTTTAYMELKSLQFDDTAVYYCARRDYRFDMGFDYWGQGTTVTVSSASTKGPSVFPLAPCSRSTSESTAALGCLVKDYFPEPVTVSWNSGALTSGVHTFPAVLQSSGLYSLSSVVTVPSSSLGTKTYTCNVDHKPSNTKVDKRVESKYGPPCPPCPAPEFEGGPSVFLFPPKPKDTLYITREPEVTCVVVDVSQEDPEVQFNWYVDGVEVHNAKTKPREEQFNSTYRVVSVLTVLHQDWLNGKEYKCKVSNKGLPSSIEKTISKAKGQPREPQVYTLPPSQEEMTKNQVSLSCAVKGFYPSDIAVEWESNGQPENNYKTTPPVLDSDGSFFLVSRLTVDKSRWQEGNVFSCSVMHEALHNHYTQKSLSLSLG
light: EIVLTQSPATLSLSPGERATLSCRASKGVSTSGYSYLHWYQQKPGQAPRLLIYLASYLESGVPARFSGSGSGTDFTLTISSLEPEDFAVYYCQHSRDLPLTFGGGTKVEIKRTVAAPSVFIFPPSDEQLKSGTASVVCLLNNFYPREAKVQWKVDNALQSGNSQESVTEQDSKDSTYSLSSTLTLSKADYEKHKVYACEVTHQGLSSPVTKSFNRGEC
With B1, in assay [1], the “EC50 [pM], PD-1/PD-L1 Blockade Bioassay (Promega)” value came to 1440 pM.

B2: RLI2 mutein D30N/E64Q/N65D (NQD) of Table 13 (ligand)
chain: ITCPPPMSVEHADIWVKSYSLYSRERYICNSGFKRKAGTSSLTECVLNKATNVAHWTTPSLKCIRDPALVHQRPAPPSGGSGGGGSGGGSGGGGSGGNWVNVISDLKKIEDLIQSMHIDATLYTESNVHPSCKVTAMKCFLLELQVISLESGDASIHDTVQDLIILANNSLSSNGNVTESGCKECEELEEKNIKEFLQSFVHIVQMFINTS
Consider B2, for which the “Potency in vitro (kit225)” value in the assay with IL-2/IL-15Rβγ (on cells) [2] is -15700 x (fold against RLI2 wt).

B3: RLI DANAQD (ligand)
chain: B2 chain with N127D, D158A, Q161E, D162A, Q198D
B3: in the assay with IL-2/IL-15Rβγ (on cells) [3], the “EC50 kit225 cells [pM]” value is 106000 pM.

B4: hCl1a AAA-RLI DANA (other)
heavy 1: QVQLVQSGAEVKKPGASVKVSCKASGYTFTDYAMHWVRQAPGQRLEWMGWINTYTGKPTYAQKFQGRVTITRDTSASTAYMELSSLRSEDTAVYYCARAVFYGYTMDAWGQGTLVTVSSASTKGPSVFPLAPSSKSTSGGTAALGCLVKDYFPEPVTVSWNSGALTSGVHTFPAVLQSSGLYSLSSVVTVPSSSLGTQTYICNVNHKPSNTKVDKKVEPKSCDKTHTCPPCPAPELLGGPSVFLFPPKPKDTLMISRTPEVTCVVVDVSHEDPEVKFNWYVDGVEVHNAKTKPREEQYNATYRVVSVLTVLHQDWLNGKEYKCKVSNKALPAPIAATISKAKGQPREPQVYTLPPSRDELTKNQVSLWCLVKGFYPSDIAVEWESNGQPENNYKTTPPVLDSDGSFFLYSKLTVDKSRWQQGNVFSCSVMHEALHNHYTQKSLSLSPGITCPPPMSVEHADIWVKSYSLYSRERYICNSGFKRKAGTSSLTECVLNKATNVAHWTTPSLKCIRDPALVHQRPAPPSGGSGGGGSGGGSGGGGSGGNWVNVISDLKKIEDLIQSMHIDATLYTESDVHPSCKVTAMKCFLLELQVISLESGDASIHATVEALIILANNSLSSNAQVTESGCKECEELEEKNIKEFLQSFVHIVQMFINTS
heavy 2: QVQLVQSGAEVKKPGASVKVSCKASGYTFTDYAMHWVRQAPGQRLEWMGWINTYTGKPTYAQKFQGRVTITRDTSASTAYMELSSLRSEDTAVYYCARAVFYGYTMDAWGQGTLVTVSSASTKGPSVFPLAPSSKSTSGGTAALGCLVKDYFPEPVTVSWNSGALTSGVHTFPAVLQSSGLYSLSSVVTVPSSSLGTQTYICNVNHKPSNTKVDKKVEPKSCDKTHTCPPCPAPELLGGPSVFLFPPKPKDTLMISRTPEVTCVVVDVSHEDPEVKFNWYVDGVEVHNAKTKPREEQYNATYRVVSVLTVLHQDWLNGKEYKCKVSNKALPAPIAATISKAKGQPREPQVYTLPPSRDELTKNQVSLSCAVKGFYPSDIAVEWESNGQPENNYKTTPPVLDSDGSFFLVSKLTVDKSRWQQGNVFSCSVMHEALHNHYTQKSLSLSPG
light: DIQMTQSPSSLSASVGDRVTITCRASEDIYSNLAWYQQKPGKAPKLLIFSVKRLQDGVPSRFSGSGSGTDFTLTISSLQPEDFATYYCLQGSNFPLTFGQGTKVEIKRTVAAPSVFIFPPSDEQLKSGTASVVCLLNNFYPREAKVQWKVDNALQSGNSQESVTEQDSKDSTYSLSSTLTLSKADYEKHKVYACEVTHQGLSSPVTKSFNRGEC
notes: Immunocytokine; also called SOT202-AAA-DANA
B4: the “A/I (V158), affinity towards FcγRIIIa over affinity towards FcγRIIb” value in the assay with FcγRIIIa V158 [4] turned out to be 691 ratio. The “A/I (F158), affinity towards FcγRIIIa over affinity towards FcγRIIb” value with FcγRIIIa F158 [5] was 244 ratio. Moreover, the Kd (in general, the free concentration of one partner at which half of the binding sites on the other are occupied at equilibrium, for simple one-to-one binding) with FcγRIIIa V158 [6] is 35.6 nM; in the assay with FcγRIIIa F158 [7], 101 nM; in the assay with FcγRIIb, 24.6 µM.

B5: hCl1a DLE-RLI DANA (other)
heavy 1: B4 heavy 1 with S241D, A300S, A332L, I334E, A335E, A336K
heavy 2: B4 heavy 2 with S241D, A300S, A332L, I334E, A335E, A336K
light: B4 light
notes: Immunocytokine; also called SOT202-DLE-DANA
On to B5, for which the “A/I (V158), affinity towards FcγRIIIa over affinity towards FcγRIIb” value in the assay with FcγRIIIa V158 [4] is 464 ratio. Further, the “A/I (F158), affinity towards FcγRIIIa over affinity towards FcγRIIb” value with FcγRIIIa F158 [5] was found to be 228 ratio. In addition, the results for the dissociation constant Kd with FcγRIIIa V158 [6], in the assay with FcγRIIIa F158 [7] and with FcγRIIb were 5.71 nM, 11.6 nM and 2.65 µM, respectively.

B6: hCl1a DLE-RLI DANA afuc (other)
heavy 1: B4 heavy 1 with S241D, A300S, A332L, I334E, A335E, A336K
heavy 2: B4 heavy 2 with S241D, A300S, A332L, I334E, A335E, A336K
light: B4 light
modifications: afucosylated Fc N-glycan
notes: Afucosylated form of hCl1a DLE-RLI DANA
Turning to B6, the “A/I (V158), affinity towards FcγRIIIa over affinity towards FcγRIIb” value in the assay with FcγRIIIa V158 [4] was 13700 ratio. In addition, the “A/I (F158), affinity towards FcγRIIIa over affinity towards FcγRIIb” value with FcγRIIIa F158 [5] is 9370 ratio. The Kd with FcγRIIIa V158 [6] is 0.162 nM; with FcγRIIIa F158 [7] it was 0.237 nM; with FcγRIIb, 2.22 µM.

B7: hCl1a AAA-RLI DANA afuc (other)
heavy 1: B4 heavy 1
heavy 2: B4 heavy 2
light: B4 light
modifications: afucosylated Fc N-glycan
Regarding B7, in the assay with FcγRIIIa V158 [4], the “A/I (V158), affinity towards FcγRIIIa over affinity towards FcγRIIb” value was 1010 ratio. For the same molecule, in the assay with FcγRIIIa F158 [5], the “A/I (F158), affinity towards FcγRIIIa over affinity towards FcγRIIb” value worked out at 380 ratio. The Kd with FcγRIIIa V158 [6] was determined as 17.3 nM; with FcγRIIIa F158 [7], 46.1 nM; with FcγRIIb, 17.5 µM.
